The data set concerns the target T1, human PAR1 (AA #27-102)/thioredoxin fusion protein (UniProt P25116).
T1 sequence: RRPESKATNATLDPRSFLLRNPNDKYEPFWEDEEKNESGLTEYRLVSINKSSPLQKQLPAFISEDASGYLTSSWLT

On to thrombin, for which the proteolytic cleavage result is reported as “The PAR1/thioredoxin was cleaved to completion with thrombin”.

These data come from US20080044424.
